Measured values reported in paper PMC9547003.

Target: bacteriophage T7 endonuclease I (C113S, S29C; called wild type in the paper), Cy3-labelled (bacteriophage T7) (UniProt P00641)
Experiment: two-step photobleaching of single fluorescent molecules (confocal microscopy with optical tweezers); Cy3-labelled endonuclease I (one dye on each monomer) diffusing on force-stretched dsDNA held between optically trapped beads; 1 nM protein, 25 mM Tris-HCl pH 7.5, 50 mM NaCl, 0.1% BSA, 1 mM CaCl2 or MgCl2

## bacteriophage T7 endonuclease I (C113S, S29C; called wild type in the paper), Cy3-labelled (from UniProt P00641 1-149) (enzyme)
  stoichiometry N: 2
